The text below walks through data of PMC4480739, “Oncogenic mutations of thyroid hormone receptor β” (Oncotarget, 2015).

Experiment [1] concerns the target GST fused p85α-CSH2 (C-terminal Src-homology 2 domain of p85α) (UniProt P27986). As to the kind of experiment: pull-down; GST-CSH2 (~5 μg, E. coli expressed) incubated with equal amounts of in vitro translated TRβ1 or mutants, in the presence of T3; bound receptor detected by Western blot with anti-TRβ1; band intensities quantified with ImageJ.
The target in experiment [2] is T1, GST fused p85α-CSH2 (C-terminal Src-homology 2 domain of p85α) (UniProt P27986 623-706).
T1 construct: C-terminal SH2 (CSH2) domain of the p85α regulatory subunit of PI3K; the limits 623-706 are told of the domain in the discussion, not in the methods of this assay; also called GST–CSH2; CSH2-conjugated to GST; source: E. coli expressed
Described as above. The settings on record: one partner purified.

T1 sequence (P27986 623-706): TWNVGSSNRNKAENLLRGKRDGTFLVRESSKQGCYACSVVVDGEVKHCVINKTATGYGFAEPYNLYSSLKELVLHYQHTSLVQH
Sequence of GST fused p85α-CSH2 (C-terminal Src-homology 2 domain of p85α) (UniProt P27986) (P27986 623-706): as above

Turning to “in vitro translated PV (from UniProt P10828 1-461) (receptor)”, in experiment [1], the fold association relative to TRβ1 came out at 3 fold.

B1: in vitro translated AM (receptor, human, UniProt P10828 1-461, looked up)
chain: MTPNSMTENGLTAWDKPKHCPDREHDWKLVGMSEACLHRKSHSERRSTLKNEQSSPHLIQTTWTSSIFHLDHDDVNDQSVSSAQTFQTEEKKCKGYIPSYLDKDELCVVCGDKATGYHYRCITCEGCKGFFRRTIQKNLHPSYSCKYEGKCVIDKVTRNQCQECRFKKCIYVGMATDLVLDDSKRLAKRKLIEENREKRRREELQKSIGHKPEPTDEEWELIKTVTEAHVATNAQGSHWKQKRKFLPEDIGQAPIVNAPEGGKVDLEAFSHFTKIITPAITRVVDFAKKLPMFCELPCEDQIILLKGCCMEIMSLRAAVRYDPESETLTLNGEMAVTRGQLKNGGLGVVSDAIFDLGMSLSSFNLDDTEVALLQAVLLMSSDRPGLACVERIEKYQDSFLLAFEHYINYRKHHVTHFWPKLLMKVTDLRMIGACHCQPLPAHEGGMPTELFPPLFLEVFED
notes: source: in vitro translated (TNT T7 quick coupled kit, Promega)
In the case of B1, the “fold association relative to TRβ1” value in experiment [2] is 3 fold.
